Tested on: K4 kissing-loop RNA reporter
Test: apparent KD of K4 kissing-loop reporter; higher = weaker reporter binding
Details: Eterna round: R107
Experimental: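 RNA-MaP round R107: designed RNA switches with theophylline, tryptophan, arginine or FMN aptamers are transcribed on-chip within common flanks. They are titrated with a labelled K4 kissing-loop RNA reporter in RNA-MaP buffer (100 mM Tris pH 7.5, 80 mM KCl, 4 mM MgCl2), without ligand or with the indicated ligand. Median apparent KD per design.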

[1] = input ligand: theophylline 20 uM
[2] = input ligand: tryptophan 2.4 mM
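Note: bound reporter read as fluorescence of individual clusters on recovered sequencing chips by microscopy, with normalized cluster intensities fitted with a binding model.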

| Sequence | apparent KD of K4 kissing-loop reporter (input ligand: FMN 200 uM) | apparent KD of K4 kissing-loop reporter (input ligand: arginine 13.2 mM) | apparent KD of K4 kissing-loop reporter (input ligand: none) | apparent KD of K4 kissing-loop reporter [1] | apparent KD of K4 kissing-loop reporter [2] |
| --- | --- | --- | --- | --- | --- |
| GGGAGUAUUGCGGCCGCCACUGAGGAAGAAGAAGGCCAUAGUGAUGUUAUGGAGGAAAGGAAGAACAGGACCGGGCAGUAGAUUU [#22 K4 Tryptophan B Same State] | 154 nM | 157 nM | 175 nM | 188 nM | 127 nM |
| GGGAGUGAUGUUCCCGCGUUGACGGUCCUCCGAGGACCGGUACGGCCGCCACUCGAAACCCAGUGAUGUUGGGACUCACCGUACU [Exclusion Tryptophan A GF 11] | 511 nM | 504 nM | 511 nM | 620 nM | 435 nM |
| GGGAUAGGAUCAGUGAUGUUGGUCCCAGAUACCAGACAAAGUCACGUCCCUUGGCAGCUGAUGAUCGCUGACGACCGGCCUCCAA [theeternabot_sameState_KL_Theo_A_7] | 259 nM | 218 nM | 262 nM | 219 nM | 256 nM |
| GGGAUGAUGUCGGCCGCCACUGACUGUGUCCAGUGAUGUUGGGAGUGUACGGAAGUUCCAUAUAUCAGGACCGGGACCUCGCUCC [theeternabot_sameState_KL_Trp_B_44] | 866 nM | 487 nM | 938 nM | 817 nM | 616 nM |
| GGGAUGUAGUGAUGUUAUAUUAGAUGUAGACGAGGACCGGUACGGCCGCCACUCGUGAUGGCUGCUAGCACGUUUCGAUGUUUGC [ExTryptoA.Cr] | 399 nM | 426 nM | 428 nM | 462 nM | 309 nM |
| GGGCGUGGCGCGGCCGCCACUGGGCCUGGGUGCUCGCUGAGUGAUGUUCGUCGGCGGUUGGGUCGUAGGACCGGGUGCUGGUUGG [BDazzled - #9 SS Tryptophan B] | 771 nM | 347 nM | 607 nM | 447 nM | 575 nM |
| GGUAGCAUGGCGGCCGCCACUAAAACUGGAUCGGAAACGAUCCAGUAAUUUCGAGUGAUGUUCGUUAGGACCGGGCCAUGCUACC | 362 nM | 254 nM | 283 nM | 257 nM | 236 nM |
| GGUAGCAUGGCGGCCGCCACUCAUGUAGAUACCUACAUAGUAAGCAGUGAUGUUGCUUUGUGGUUGAGGACCGGGCCAUGCUACC | 167 nM | 140 nM | 151 nM | 161 nM | 255 nM |
| GGUAGCUAGGCAGGAUAUAGCUAGUGGAGUGAUGUUCCACCAUACACGAGUGAUGUUCGUAACCUGCUAGAAGGGCCUAGCUACC | 114 nM | 125 nM | 144 nM | 135 nM | 138 nM |
| GGUCGAGUGAUGUUCGAUGUUAUGCAUUCAGAGGAUAUAGGAUUAGCUAGAAGGCUGAAUCAAUCUUCGAGUGAUGUUCGAGGAU [Same State FMN A GF 9] | 133 nM | 108 nM | 115 nM | 123 nM | 112 nM |
| GGUGUGCCAAGUGAUGUUUGGCGUUCUCACCGAGGACCGGUACGGCCGCCACUCGUUAACUGACCAAGUAUCUUUACCUCGGAGA [theeternabot_sameState_KL_Trp_A_8] | 168 nM | 141 nM | 159 nM | 187 nM | 156 nM |
| GGUGUUGUUUGUGCCGCCUUCCUCGUUCCUCGAGGACCGGUACGGCCGCCACUCGAGUGAUGUUUGGGUAGCGAUCCCUGCUAGU [Bdazzled - #12 Exc. Tryptophan A] | 877 nM | 696 nM | 1000 nM | 822 nM | 892 nM |
| GGUUCCUCAGUGAUGUUGAGGUGACCUCGGCAGGAUAUAGGCAUUACUAGAAGGGCCAAAAGAACCCUGUGUAGCGACACAGGGA [Beerma] | 150 nM | 269 nM | 329 nM | 279 nM | 299 nM |
| GGUUCUCUGUUAGGAUAUAGAUUAGAGUGAUGUUCUAACGGCCCGGGCCCGAAAGGGCCCGGGCCGCUAGAAGGAACGGAGUUGG [#2 Same State - FMN A Attempt #1 (HarryS)] | 399 nM | 149 nM | 1100 nM | 538 nM | 444 nM |
| GUACACUCUCGAGUGAUGUUCGGUAAUAGAGAGGAUAUCGCUUUUGCGAGAAGGCUCUGAAUGAGGAAACUCGUUCUGUGUGUAC [FMN A 20] | 906 nM | 686 nM | 1160 nM | 858 nM | 894 nM |
| GUACGCUGCUGAGUGAUGUUCAGCAAUCGCUAGGAUAUCGCUUUUGCGAGAAGGAGCGCAAUGAGGAAACUCGUUGUUAGUGUAC [FMN A 28] | 166 nM | 198 nM | 255 nM | 204 nM | 207 nM |
| GUAGACGUGCCUUCAGUGAUGUUGAAGGAUACCAGAUGUUACCACAUCCCUUGGCAGCCUUGGGAUAACAGUGAGUCGGUAUAUG [Ontierso] | 255 nM | 200 nM | 297 nM | 253 nM | 247 nM |
| GUAGCACAGUCGGCCGCCACUGUCGGUUCUCCAGUGAUGUUGGAGUUAGUUCGUCGCAGUUCAAACAGGACCGGGACCAUUCCUU [theeternabot_exclusion_KL_Trp_B_26] | 125 nM | 135 nM | 127 nM | 132 nM | 121 nM |
| GUAUAAAUAUAAGGAUAUGCAGGGAAAGUAAGAAUGGGUUAGUUGAACUUUAGUGAUGUUGAGGAAGCAGAAGGUGUAUAUGUGU [FMN B same state] | 650 nM | 272 nM | 381 nM | 322 nM | 319 nM |
| GUAUCGCUAGGAGGAUAUUUCAUAUAACAUAUAAAUGGAUAUGCGGAGUGAUGUUCCGAUUUACGGAAAGAAGGCCUAGUGAUAC [FMN B 19] | 119 nM | 172 nM | 192 nM | 207 nM | 172 nM |
| GUAUUGUGAAUGGAUACCAGACACCCGAGUGAUGUUCGGAGCAGAGUGAUGUUCUAAUAAGUCCCUUGGCAGCCGGAAGCAGCCG [Same State Theophylline B GF 3] | 223 nM | 296 nM | 340 nM | 392 nM | 242 nM |

Source: the supplement of paper PMC9170038
